In data set [1] the target is T1, GST-ABI5 (Arabidopsis thaliana, UniProt Q9SJN0 1-442).
T1 sequence: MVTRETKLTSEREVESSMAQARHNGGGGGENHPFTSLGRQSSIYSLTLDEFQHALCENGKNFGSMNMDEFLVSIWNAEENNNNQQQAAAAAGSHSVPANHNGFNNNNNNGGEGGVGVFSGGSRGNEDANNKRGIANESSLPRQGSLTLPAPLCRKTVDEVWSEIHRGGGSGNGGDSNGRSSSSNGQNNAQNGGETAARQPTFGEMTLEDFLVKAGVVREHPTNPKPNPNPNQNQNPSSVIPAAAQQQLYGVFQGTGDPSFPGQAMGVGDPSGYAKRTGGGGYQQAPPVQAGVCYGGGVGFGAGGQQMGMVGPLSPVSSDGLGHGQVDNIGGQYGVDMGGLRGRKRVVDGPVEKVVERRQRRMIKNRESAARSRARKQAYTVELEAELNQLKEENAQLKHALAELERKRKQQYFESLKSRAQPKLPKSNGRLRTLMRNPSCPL
Put plainly: EMSA. For orientation: A gel shift assay detects complexes by their altered migration in electrophoresis.

A further data set addresses T2, BBX31 (miP1a) (Arabidopsis thaliana, UniProt Q9LRM4 1-121).
T2 sequence: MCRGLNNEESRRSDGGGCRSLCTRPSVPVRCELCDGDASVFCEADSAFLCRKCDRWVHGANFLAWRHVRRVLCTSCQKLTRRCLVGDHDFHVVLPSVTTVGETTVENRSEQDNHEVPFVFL
Put plainly: EMSA.

A further data set deals with T3, BBX30 (miP1b) (Arabidopsis thaliana, UniProt Q1G3I2 1-117).
T3 sequence: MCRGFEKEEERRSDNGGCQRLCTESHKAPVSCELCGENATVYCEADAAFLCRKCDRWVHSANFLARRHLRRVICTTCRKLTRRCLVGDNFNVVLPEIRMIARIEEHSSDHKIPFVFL
Put plainly: EMSA.

The target of data set [2] is T4, GST-ABI5 (Arabidopsis thaliana, UniProt Q9SJN0 1-442).
T4 sequence: T1 sequence
Put plainly: pull-down.

Where a chain is given by its changes, count along the chain named.

Consider eight molecules from article doi:10.1101/2022.06.21.497044 (bioRxiv, 2022).

B1: BBX31 promoter probe (dsDNA)
DNA 1: AAATAACAGGGCAAGATTCATCCACGTGTCCAACAACAACACAACACAAA
DNA 2: TTTGTGTTGTGTTGTTGTTGGACACGTGGATGAATCTTGCCCTGTTATTT
Take B1: the binding result with GST-ABI5 [1] is recorded as “binds”.

B2: mutBBX31 probe (dsDNA)
DNA 1: B1 DNA 1 with C23A, A24C, T27G
DNA 2: B1 DNA 2 with A24C, T27G, G28T
In the case of B2, the binding result with GST-ABI5 [1] is listed as “no binding”.

B3: EM6 promoter probe (dsDNA)
DNA 1: AATAAAGTCAGACACGTGGCATGTCACCAA
DNA 2: TTGGTGACATGCCACGTGTCTGACTTTATT
As for B3, the binding result with BBX31 (miP1a) and in the data set with BBX30 (miP1b) was “no binding” in each case.

B4: ABI5 promoter probe (dsDNA)
DNA 1: GCAAGAAACAGAAGAGAGACACGTGCAGGACACGTGTCGTCCGCAGCCGAACGGA
DNA 2: TCCGTTCGGCTGCGGACGACACGTGTCCTGCACGTGTCTCTCTTCTGTTTCTTGC
For the molecule B4, the binding result with BBX31 (miP1a) and in the data set with BBX30 (miP1b) was “no binding” throughout.

B5: His-BBX30 (natural protein)
chain: T3 sequence
B5: in the data set with GST-ABI5 [2], the binding result is listed as “binds”.

B6: BBX30 promoter probe (dsDNA)
DNA 1: GTCAATATTTTTCCACGTGTACAACCAGTTTA
DNA 2: TAAACTGGTTGTACACGTGGAAAAATATTGAC
As to B6, in the data set with GST-ABI5 [1], the binding result is “binds”.

B7: mutBBX30 probe (dsDNA)
DNA 1: B6 DNA 1 with C16A, G17A, T18A, G19A
DNA 2: B6 DNA 2 with C14T, A15T, C16T, G17T
In the case of B7, the binding result with GST-ABI5 [1] was “no binding”.

B8: His-BBX31 (natural protein)
chain: T2 sequence
Turning to B8, the binding result in the data set with GST-ABI5 [2] is reported as “binds”.
